Measurements as given in US20220089647A1 (FUJIFILM, published 2022).
Starred links: 1 amine or outer side, 2 acyl side, 3 side chain; linkers in the order of their positions; H or OH if unused. Positions of bridges follow the written chain, without caps; N, C: chain ends. Non-standard residues stand in square brackets, D forms with d. Primed or numbered codes have the meaning given here. No end group written: not given here. Dab(acetyl)″ = 2-amino-4-(acetylamino)butanoic acid, acetyl CH3 carbon bonded to the S of Hcy (S-CH2-C(=O)-NH-), O=C(C[*:3])NCC[C@H](N[*:1])C(=O)[*:2]; Dab(acetyl) = 2-amino-4-acetylamino-butanoic acid residue (N-γ-acetyl-diaminobutyric acid), CC(=O)NCC[C@H](N[*:1])C(=O)[*:2]; COCH2 = acetyl group that carries the bridge; hCys = N[C@@H](CCS)C(=O)O; Dab = NCC[C@H](N)C(=O)O; Dap = NC[C@H](N)C(=O)O; βAla = NCCC(=O)O

Each binder was assayed against T1, human integrin αvβ5 (human, UniProt P06756 31-992; P18084 24-719, limits assumed) (assay: SPR, Biacore 3000, peptide immobilised; C = KD more than 100 nM and 200 nM or less).
T1 construct: Heterodimer flowed as analyte at 30, 100, 300 and 1,000 nM in HEPES buffer with 5 mM MgCl2
Procedure: However, only for the cyclic peptides 125, 126, and 127, in which the number of lysine residues having an amino group as the immobilizing functional group was zero, the amount of the sample solution to be supplied to the sensor chip was set to 500 μL instead of 20 μL. Further, 70 μL of the mixed aqueous solution of 0.2 M EDC and 0.04 M NHS was added to another flow channel of the same sensor chip without immobilizing the sample, and then blocking treatment and washing treatment were carried out. Hereinafter, the obtained immobilization-treated sensor chip is referred to as an “immobilization-treated sensor chip A”.
After adding human integrin αvβ5 for 10 minutes at 25° C., which was diluted to 30 nM using a HEPES buffer solution to which magnesium chloride was added to 5 mM, in each flow channel of the immobilization-treated sensor chip A prepared in (1) above, the same HEPES buffer solution (containing 5 mM magnesium chloride) was allowed to flow as a running buffer for 30 minutes, and measurement was carried out with Biacore 3000. Then, a regeneration treatment of removing human integrin αvβ5 was carried out by allowing a 0.5 M EDTA aqueous solution to flow through each flow channel for 10 minutes. Further, the above-described measurement process consisting of adding integrin for 10 minutes, allowing a running buffer to flow for 30 minutes, carrying out measurement with Biacore 3000, and carrying out regeneration treatment with 0.5 M EDTA aqueous solution was carried out in the same manner for 100 nM human integrin αvβ5, 300 nM human integrin αvβ5, and 1,000 nM human integrin αvβ5. Dissociation constant between the cyclic peptide and human integrin αvβ5 was calculated from the difference between the value measured by Biacore 3000 in the flow channel immobilized with the cyclic peptide and the value measured by Biacore 3000 in the flow channel unimmobilized with the cyclic peptide, in a case where each concentration of human integrin αvβ5 was allowed to flow, and the integrin binding property was evaluated according to the following evaluation standards. It is preferable that the evaluation result satisfies the evaluation standard A, B, or C.

T1 sequence (P06756 31-992 limits assumed, chain 1 of 2): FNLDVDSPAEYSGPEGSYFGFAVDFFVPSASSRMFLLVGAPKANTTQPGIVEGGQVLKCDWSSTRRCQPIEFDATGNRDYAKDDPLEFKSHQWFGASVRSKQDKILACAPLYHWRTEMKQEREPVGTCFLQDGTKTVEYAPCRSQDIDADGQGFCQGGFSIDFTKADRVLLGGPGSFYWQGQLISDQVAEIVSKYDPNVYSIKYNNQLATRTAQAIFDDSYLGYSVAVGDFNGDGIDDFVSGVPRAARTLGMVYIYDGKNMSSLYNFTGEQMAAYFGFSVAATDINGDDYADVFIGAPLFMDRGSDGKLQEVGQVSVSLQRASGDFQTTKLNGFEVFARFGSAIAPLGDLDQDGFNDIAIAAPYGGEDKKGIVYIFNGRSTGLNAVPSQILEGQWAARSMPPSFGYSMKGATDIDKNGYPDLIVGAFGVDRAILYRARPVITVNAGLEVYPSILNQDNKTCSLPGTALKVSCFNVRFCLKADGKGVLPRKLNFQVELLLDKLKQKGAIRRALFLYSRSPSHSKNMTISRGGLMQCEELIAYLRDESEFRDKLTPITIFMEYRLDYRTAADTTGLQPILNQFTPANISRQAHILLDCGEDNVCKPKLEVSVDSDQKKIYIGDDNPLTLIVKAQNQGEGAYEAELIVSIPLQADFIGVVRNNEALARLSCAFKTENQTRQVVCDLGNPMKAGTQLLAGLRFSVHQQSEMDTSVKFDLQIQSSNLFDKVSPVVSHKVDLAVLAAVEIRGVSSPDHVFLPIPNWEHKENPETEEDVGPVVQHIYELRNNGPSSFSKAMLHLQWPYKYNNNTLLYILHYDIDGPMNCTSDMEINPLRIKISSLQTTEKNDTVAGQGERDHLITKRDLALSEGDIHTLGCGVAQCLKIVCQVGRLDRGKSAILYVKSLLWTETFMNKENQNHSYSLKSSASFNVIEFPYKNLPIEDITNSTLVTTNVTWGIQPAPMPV
T1 sequence (P18084 24-719 limits assumed, chain 2 of 2): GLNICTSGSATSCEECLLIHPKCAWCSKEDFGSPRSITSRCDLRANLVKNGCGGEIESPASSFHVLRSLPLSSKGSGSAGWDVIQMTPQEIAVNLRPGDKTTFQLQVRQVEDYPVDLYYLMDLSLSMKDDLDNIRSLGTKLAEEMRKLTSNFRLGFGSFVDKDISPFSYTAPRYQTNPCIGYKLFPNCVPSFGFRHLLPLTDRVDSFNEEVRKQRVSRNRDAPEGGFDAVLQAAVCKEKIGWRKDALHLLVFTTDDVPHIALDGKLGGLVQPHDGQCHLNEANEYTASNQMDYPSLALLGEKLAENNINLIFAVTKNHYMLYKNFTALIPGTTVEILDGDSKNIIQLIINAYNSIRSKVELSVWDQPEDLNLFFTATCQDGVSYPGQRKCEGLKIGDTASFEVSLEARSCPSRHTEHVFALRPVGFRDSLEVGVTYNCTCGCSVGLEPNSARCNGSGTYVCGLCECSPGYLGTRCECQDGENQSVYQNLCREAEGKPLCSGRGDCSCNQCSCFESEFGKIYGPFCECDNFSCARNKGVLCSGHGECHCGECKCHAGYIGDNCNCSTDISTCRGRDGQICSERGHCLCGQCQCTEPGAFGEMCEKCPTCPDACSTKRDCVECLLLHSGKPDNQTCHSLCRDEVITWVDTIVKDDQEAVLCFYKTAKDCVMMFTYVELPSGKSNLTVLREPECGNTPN

Row | dissociation constant (KD) [nM] | Binder
1 | 100 to 200 | KKK[βAla][hCys]EPRGDNYR[Dab(acetyl)″]-NH2 (thioether 5-14; N-terminus assumed; SMILES N=C(N)NCCC[C@@H]1NC(=O)[C@H](Cc2ccc(O)cc2)NC(=O)[C@H](CC(N)=O)NC(=O)[C@H](CC(=O)O)NC(=O)CNC(=O)[C@H](CCCNC(=N)N)NC(=O)[C@@H]2CCCN2C(=O)[C@H](CCC(=O)O)NC(=O)[C@@H](NC(=O)CCNC(=O)[C@H](CCCCN)NC(=O)[C@H](CCCCN)NC(=O)[C@@H](N)CCCCN)CCSCC(=O)NCC[C@@H](C(N)=O)NC1=O) [Cyclic peptide 51]
2 | 100 to 200 | KKKA[hCys]EPRGDSYR[Dab](COCH2)D (thioether 5-14) [Cyclic peptide 33]
3 | 100 to 200 | KKKA[hCys]EPRGDNYD[Dab](COCH2)D (thioether 5-14) [Cyclic peptide 35]
4 | 100 to 200 | KKKA[hCys]EPRGDNYR[Dab(acetyl)″]-NH2 (thioether 5-14; N-terminus assumed; SMILES C[C@H](NC(=O)[C@H](CCCCN)NC(=O)[C@H](CCCCN)NC(=O)[C@@H](N)CCCCN)C(=O)N[C@H]1CCSCC(=O)NCC[C@@H](C(N)=O)NC(=O)[C@H](CCCNC(=N)N)NC(=O)[C@H](Cc2ccc(O)cc2)NC(=O)[C@H](CC(N)=O)NC(=O)[C@H](CC(=O)O)NC(=O)CNC(=O)[C@H](CCCNC(=N)N)NC(=O)[C@@H]2CCCN2C(=O)[C@H](CCC(=O)O)NC1=O) [Cyclic peptide 50]
5 | 100 to 200 | KKK[hCys]PRGDNFR[Dab(acetyl)]A (thioether 4-12) [Cyclic peptide 9]

Each binder was assayed against T1, human integrin αvβ5 (assay: SPR, Biacore 3000, peptide immobilised; B = KD more than 50 nM and 100 nM or less).

Row | dissociation constant (KD) [nM] | Binder
6 | 50 to 100 | KKKA[hCys]TTRGDSFA[Dab](COCH2)A (thioether 5-14) [Cyclic peptide 161]
7 | 50 to 100 | KKK[hCys]VPRGDTFT[Dab(acetyl)] (thioether 4-13) [Cyclic peptide 154]
8 | 50 to 100 | KKK[hCys]TPRGDSFA[Dab(acetyl)] (thioether 4-13) [Cyclic peptide 156]
9 | 50 to 100 | KKK[Dap](COCH2)EPRGDNYRC (thioether 4-13) [Cyclic peptide 167]

The binders below were run against T1, human integrin αvβ5 (assay: SPR, Biacore 3000, peptide immobilised; A = KD 50 nM or less).

Row | dissociation constant (KD) [nM] | Binder
10 | ≤ 50 | KKK[hCys]IPRGDSFA[Dab](COCH2)A (thioether 4-13) [Cyclic peptide 163]
11 | ≤ 50 | KKKA[Dap](COCH2)EPRGDNYRC (thioether 5-14) [Cyclic peptide 166]
12 | ≤ 50 | KKKA[hCys]IPRGDSFA[Dab](COCH2) (thioether 5-14) [Cyclic peptide 162]
13 | ≤ 50 | KKK[hCys]VPRGDTFA[Dab](COCH2)A (thioether 4-13) [Cyclic peptide 165]
